This passage reports Km and kcat results from patent publication US8465735B2, “Variant form of urate oxidase and use thereof” (Savient Pharmaceuticals, Inc., priority 2005, dated 2013).

The subject of this data set is O=c1[nH]c(=O)c2[nH]c(=O)[nH]c2[nH]1. The data set is described as follows: purified protein, by the assay type. Particulars: other: sodium borate buffer, pH 9.2, 25.0 °C.

Method: Activity of uricase was measured by a UV method. […] Uricase potency is expressed in activity units per mg protein (U/mg).
The absorbance change with time (ΔA292 per minute) was derived from the linear portion of the curve.
The specific activity (potency) of uricase was calculated by dividing the activity in U/ml with protein concentration in mg/ml.

In general, Km refers to the concentration of substrate that gives half-maximal velocity. As usually defined, the kcat is the number of substrate molecules converted per active site and unit of time at saturation. As to “A. flavus (Aspergillus flavus) uricase, native (Merck) (Aspergillus flavus)”, the Km was found to be 23.54 µM and the kcat turned out to be 11.2 s⁻¹.
